US20150183820A1
Where two headings read alike, the source gives them in different places.

What was measured:
[1] = target: gamma-globulin derived from human serum (Wako Pharmaceuticals); experiment: pH gradient affinity chromatography, commercial comparison column
human immunoglobulin IgG [2] = experiment: SPR, binder on SA chip, dissociation at pH 4.0, 1:1 Langmuir
human immunoglobulin IgG [3] = experiment: SPR, binder on SA chip, 1 uM IgG, dissociation in 10 mM sodium acetate pH 4.0
[4] = target: IgG1 type humanized monoclonal antibody; experiment: pH gradient affinity chromatography, binder immobilized on streptavidin column
[5] = target: ChromPure Human IgG, Fc Fragment (human); experiment: stepwise pH affinity chromatography, binder immobilized on streptavidin column
human immunoglobulin IgG [6] = experiment: SPR, binder on SA chip, dissociation at pH 4.0
[7] = target: IgG1 type humanized monoclonal antibody; experiment: pH gradient affinity chromatography, Epoxy-activated Sepharose 6B immobilized column
human IgG3 [8] = experiment: as above
[9] = target: IgG1 type humanized monoclonal antibody
[10] = target: IgG1 type humanized monoclonal antibody; experiment: SPR, IgG1 antibody amine-coupled on CM-5 chip, pH 7.4
[11] = target: IgG1 type humanized monoclonal antibody; experiment: pH gradient affinity chromatography, SulfoLink immobilized column
human IgG3 [12] = experiment: as above
[13] = target: gamma-globulin derived from human serum (Wako Pharmaceuticals); experiment: pH gradient affinity chromatography, DSC-activated immobilized column
[14] = target: IgG1 type humanized monoclonal antibody; experiment: SPR, IgG1 antibody amine-coupled on CM-5 chip (5000 RU), pH 7.4, 25 C, 1:1 Langmuir
[15] = target: Fc region of human immunoglobulin (human); experiment: SPR, Fc on CM4 chip, pH 4.5, 1:1 Langmuir
[16] = target: Fc region of human immunoglobulin (human); experiment: SPR, Fc on CM5 chip, pH 7.4, 1:1 Langmuir
[17] = target: Fc region of human immunoglobulin (human); experiment: SPR, Fc on CM4 chip, pH 4.5
[18] = target: Fc region of human immunoglobulin (human); experiment: SPR, Fc on CM5 chip, pH 7.4

Sepharose 4 Fast Flow column (GE Healthcare)
elution peak pH [1]: 3.2 pH

B1: OXADac-PG01 (protein)
chain: MGAGTPVTAPLAGTIWKVLASEGQTVAAGEVLLILEAMKMETEIRAAQAGTVRGIAVKAGDAVAVGDTLMTLAGSGSDLYDDDDKGIITSLYKKAGSAAAPFTDTYKLILNGKTLKGETTTEAVDAATAEKVFKQYANDNGVDGEWTYDDATKTFTVTE
koff (human immunoglobulin IgG [2]): 4.2e-05 s⁻¹ | ratio of the remaining amount of antibody by SPR sensorgram at pH 4.0 (human immunoglobulin IgG [3]): 99% | value of the elution peak of antibody in pH-gradient chromatography [4]: 3.18 pH | recovery ratio of antibody in step-wise pH chromatography at pH 4.0 [5]: 10%

B2: OXADac-PG17 (designed binder)
chain: MGAGTPVTAPLAGTIWKVLASEGQTVAAGEVLLILEAMKMETEIRAAQAGTVRGIAVKAGDAVAVGDTLMTLAGSGSDLYDDDDKGIITSLYKKAGSAAAPFTDTYKLILNGKRLKGETITEAVDAATAEKVFKQYANEHGVDGEWTYDPETKTFTVTE
koff (human immunoglobulin IgG [2]): 0.032 s⁻¹ | ratio of the remaining amount of antibody by SPR sensorgram at pH 4.0 (human immunoglobulin IgG [3]): 86% | value of the elution peak of antibody in pH-gradient chromatography [4]: 3.27 pH

B3: OXADac-PG13 (designed binder)
chain: MGAGTPVTAPLAGTIWKVLASEGQTVAAGEVLLILEAMKMETEIRAAQAGTVRGIAVKAGDAVAVGDTLMTLAGSGSDLYDDDDKGIITSLYKKAGSAAAPFTDTYKLILNGKTLKGETTTEAVDAATAEKVFKQYANEHGVHGEWTYDPETKTFTVTE
koff (human immunoglobulin IgG [2]): 0.06 s⁻¹ | ratio of the remaining amount of antibody by SPR sensorgram at pH 4.0 (human immunoglobulin IgG [3]): 64% | value of the elution peak of antibody in pH-gradient chromatography [4]: 3.56 pH

B4: OXADac-PG15 (designed binder)
chain: MGAGTPVTAPLAGTIWKVLASEGQTVAAGEVLLILEAMKMETEIRAAQAGTVRGIAVKAGDAVAVGDTLMTLAGSGSDLYDDDDKGIITSLYKKAGSAAAPFTDTYKLILNGKRLKGETTTEAVDAATAEKVFKQYANEHGVDGEWTYDPETKTFTVTE
koff (human immunoglobulin IgG [2]): 0.00044 s⁻¹ | ratio of the remaining amount of antibody by SPR sensorgram at pH 4.0 (human immunoglobulin IgG [3]): 90%

B5: OXADac-PG07 (designed binder)
chain: MGAGTPVTAPLAGTIWKVLASEGQTVAAGEVLLILEAMKMETEIRAAQAGTVRGIAVKAGDAVAVGDTLMTLAGSGSDLYDDDDKGIITSLYKKAGSAAAPFTDTYKLILNGKTLKGETTTEAVDAATAEKVFKQYANEHGVDGEWTYDPETKTFTVTE
koff (human immunoglobulin IgG [2]): 0.00011 s⁻¹ | ratio of the remaining amount of antibody by SPR sensorgram at pH 4.0 (human immunoglobulin IgG [3]): 93%

B6: OXADac-PG20 (designed binder)
chain: MGAGTPVTAPLAGTIWKVLASEGQTVAAGEVLLILEAMKMETEIRAAQAGTVRGIAVKAGDAVAVGDTLMTLAGSGSDLYDDDDKGIITSLYKKAGSAAAPFTDTYKLILNGKTLKGETTTEAVHAATAEKVFKHYANEHGVHGHWTYDPETKTFTVTE
ratio of the remaining amount of antibody by SPR sensorgram at pH 4.0 (human immunoglobulin IgG [3]): 58% | elution pH difference against the wild-type (OXADac-PG01) [4]: 1.1 pH points | value of the elution peak of antibody in pH-gradient chromatography [4]: 4.29 pH | elution rate at pH 4 against the wild-type (OXADac-PG01) [5]: 7 times | recovery ratio of antibody in step-wise pH chromatography at pH 4.0 [5]: 71%

B7: OXADac-PG16 (designed binder)
chain: MGAGTPVTAPLAGTIWKVLASEGQTVAAGEVLLILEAMKMETEIRAAQAGTVRGIAVKAGDAVAVGDTLMTLAGSGSDLYDDDDKGIITSLYKKAGSAAAPFTDTYKLILNGKTLKGETITEAVDAATAEKVFKQYANEHGVDGEWTYDPETKTFTVTE
koff (human immunoglobulin IgG [2]): 0.00013 s⁻¹ | ratio of the remaining amount of antibody by SPR sensorgram at pH 4.0 (human immunoglobulin IgG [3]): 94%

B8: OXADac-PG14 (designed binder)
chain: MGAGTPVTAPLAGTIWKVLASEGQTVAAGEVLLILEAMKMETEIRAAQAGTVRGIAVKAGDAVAVGDTLMTLAGSGSDLYDDDDKGIITSLYKKAGSAAAPFTDTYKLILNGKTLKGETTTEAVDAATAEKVFKQYANEHGVDGHWTYDPETKTFTVTE
koff (human immunoglobulin IgG [2]): 0.04 s⁻¹ | ratio of the remaining amount of antibody by SPR sensorgram at pH 4.0 (human immunoglobulin IgG [3]): 71%

B9: OXADac-PG19 (designed binder)
chain: MGAGTPVTAPLAGTIWKVLASEGQTVAAGEVLLILEAMKMETEIRAAQAGTVRGIAVKAGDAVAVGDTLMTLAGSGSDLYDDDDKGIITSLYKKAGSAAAPFTDTYKLILNGKTLKGETTTEAVDAATAEKVFKHYANEHGVHGHWTYDPETKTFTVTE
increase of the dissociation rate constant against the wild-type (OXADac-PG01) (orders of magnitude) (human immunoglobulin IgG [6]): 3 | percent of adsorbed IgG dissociated at pH 4.0 (human immunoglobulin IgG [6]): 60% | koff (human immunoglobulin IgG [2]): 0.27 s⁻¹ | ratio of the remaining amount of antibody by SPR sensorgram at pH 4.0 (human immunoglobulin IgG [3]): 38% | value of the elution peak of antibody in pH-gradient chromatography [4]: 4.04 pH | elution rate at pH 4 against the wild-type (OXADac-PG01) [5]: 7 times | recovery ratio of antibody in step-wise pH chromatography at pH 4.0 [5]: 88%

B10: CGB01H-3D (protein)
chain: MAYYDPETGTWYSGGRDTYKLILNGKTLKGETTTEAVDAATAEKVFKQYANDNGVDGEWTYDDATKTFTVTERPEVIDASELTPAVDTYKLILNGKTLKGETTTEAVDAATAEKVFKQYANDNGVDGEWTYDDATKTFTVTERPEVIDASELTPAVDTYKLILNGKTLKGETTTEAVDAATAEKVFKQYANDNGVDGEWTYDDATKTFTVTERPEVIDASELTPAVGGGGCHHHHHH
elution peak pH [7]: 3.3 pH | elution peak pH (human IgG3 [8]): 3.4 pH

B11: CGB19H-3D (designed binder)
chain: MAYYDPETGTWYSGGRDTYKLILNGKTLKGETTTEAVDAATAEKVFKHYANEHGVHGHWTYDPETKTFTVTERPEVIDASELTPAVDTYKLILNGKTLKGETTTEAVDAATAEKVFKHYANEHGVHGHWTYDPETKTFTVTERPEVIDASELTPAVDTYKLILNGKTLKGETTTEAVDAATAEKVFKHYANEHGVHGHWTYDPETKTFTVTERPEVIDASELTPAVGGGGCHHHHHH
elution peak pH [9]: 4.3 pH | avidity improvement against the single domain-type M-PG19 [10]: 190 fold | difference of the dissociation rate constants against M-PG19 [10]: 370 times | elution peak pH [11]: 4.3 pH | elution peak pH (human IgG3 [12]): 5.2 pH | elution peak pH [13]: 3.6 pH | Kd [14]: 0.1 nM | elution peak pH (human IgG3 [8]): 4.9 pH

B12: M-PG07 (designed binder)
chain: MDTYKLILNGKTLKGETTTEAVDAATAEKVFKQYANEHGVDGEWTYDPETKTFTVTE
Kd [15]: 230 nM | Kd [16]: 290 nM

B13: M-PG19 (designed binder)
chain: MDTYKLILNGKTLKGETTTEAVDAATAEKVFKHYANEHGVHGHWTYDPETKTFTVTE
affinity in the acidic region against M-PG01 [17]: 0.6 times | avidity in the neutral region against M-PG01 [18]: 11 times | Kd [15]: 1000 nM | Kd [16]: 43 nM | Kd [14]: 19 nM
